Experimental data reported in US11407840B2, “Antibodies to M(H)DM2/4 and their use in diagnosing and treating cancer” (NomoCan Pharmaceuticals LLC, priority 2017, dated 2022).

Legend:
[1] = tested on: mouse Lewis Lung LL/2 cancer cells; experiment: Flow cytometry, EDTA versus trypsin, intact versus permeabilized cells; type: binding; conditions: antibody 5 μg/ml, FIG. 11
Experimental: Flow Cytometry Methodology: Cells that had been allowed to grow to about 80% confluency in 25 cm^2 tissue culture flasks were released with either EDTA (10 mmols; pH7.2; 5 min, 37° C.) or Trypsin (Gibco TrypLE Express), fixed with freshly made 4% buffered (pH 7.4) paraformaldehyde for 1 h at room temperature, washed several times with a large volume of ice-cold PBS, and blocked for 30 minutes at room temperature with 5% human serum albumin in PBS (intact, non-permeabilized cells). After establishing viability, the cell number was adjusted to 10^6 cells/ml and kept in ice-cold PBS until staining. Another set of the same cells was released with either EDTA or Trypsin and fixed with 4% buffered paraformaldehyde as above, then washed and blocked with 5% human serum albumin in PBS, and was treated separately with Triton X-100 (0.1% in PBS) (International Biotechnologies Inc. 07100) for 5 minutes at room temperature for membrane permeabilization. After washing off the Triton X-100 solution with PBS the cells were adjusted to 10^6 cells/ml and stored in ice-cold PBS. Cells (10^6/ml) from each preparation were then incubated either with 5 μg/ml of mAb to Na+/K+ ATPase ? -1 (Abeam, Cat. No. ab2826), 5 μg/ml of mAb NMC-103, or 5 μg/ml of mAb NMC-204 for 90 min at room temperature. Following primary antibody incubation, cells were washed 3 times with ice-cold PBS followed by incubation with rabbit anti-mouse PE-Cy5 labeled secondary antibody (PE-Cy5-RaM IgG (H&L); Invitrogen, Cat. No. M35018) at room temperature. Sixty minutes later the cells were washed 3 times with PBS and subjected to flow cytometry analysis (BD Canto Flow Cytometry). Controls to establish background fluorescence included the analysis of samples of unstained cells as well as cells that had been processed with secondary antibody under the same conditions as used in the experimental samples.
To further validate that the epitopes of the plasma membrane M(H)DM2 are in fact extracellularly accessible sequences on cancer cells, binding of mAbs NMC-103, NMC-204 and NMC-303 was performed on mouse Lewis Lung LL/2 cancer cells under treatment conditions of EDTA versus trypsin. Both of these conditions were also tested on intact versus permeabilized cells. FIG. 11 panels A, B and C present flow cytometry data on % cells stained with mAbs NMC-103, NMC-204 and anti-Na+/K+ ATPase ? -1, respectively. Each antibody was reacted with cells from four treatment conditions: EDTA-treated intact cells, EDTA-treated permeabilized cells, trypsin-treated intact cells, trypsin-treated permeabilized cells. […] However, when trypsin-treaded cells were permeabilized, the above reduction in binding was compensated by reactivity of the antibodies to intracellular MDM2 or Na+/K+ ATPase a-1.

[2] = tested on: mouse colon cancer MC-38 cells (subcutaneous tumors); experiment: MC-38 syngeneic mouse model of colon cancer; type: in vivo, mouse (C57BL/6); conditions: for reduction in tumor volume versus control: FIG. 23
Experimental: Methodology used (Syngeneic Mouse Models of lung, colon and pancreatic cancer): To investigate the anti-tumor effects of HDM2-specific antibodies on lung, colon and pancreatic tumors in vivo, three well-known syngeneic mouse models of lung, colon and pancreatic cancer were used (Sharma et al, 1999, J. Immunol. 163 (9):5020-5028; McIntyre, 2015, Bioassays 37(8):909-920; Li, et al, 2015, Sci. Rep. 5:7856). Subcutaneous tumors were prepared by implanting either mouse Lewis Lung cancer LL/2 cells (2.5×10^5 cells/mouse), mouse colon cancer MC-38 cells (5×10^5 cells/mouse) or mouse pancreatic cancer Panc-2 cells (2×10^6 cells/mouse) in the right flanks of 8-week-old female C57BL/6 mice (n=6-7). The mice were returned to their respective cages after tumor implantation. From day 7 after tumor implantation, the tumor volumes were measured 2 times/week with a digital caliper. In the case of MC-38 and Panc-2 study, treatment started when the tumors reached an average of 70-80 mm^3. In the case of LL/2 study, tumor cell inoculation and treatment were initiated simultaneously. Mice were micro-chipped and registered following tumor implantation. Tumor volume measurements and body weights were recorded and mice were randomized into groups that received: A) mAb NMC-103 at 0.4 mg/kg (3 times a week for 3 weeks), 2 mg/kg (2 times a week for 3 weeks), or 4 mg/kg (2 times a week for 3 weeks); B) NMC-204 at 0.4 mg/kg (3 times a week for 3 weeks); C) isotype control mouse IgG1 (Abeam, Cat. No. ab 18447) or IgG3 (Abeam, Cat. No. ab 18392) at 0.4 mg/kg (3 times a week for 3 weeks) or 4 mg/kg (2 times a week for 3 weeks); D) Gemcitabine (25 mg/kg) and nab-paclitaxel (5 mg/kg) 2 times a week for 3 weeks; or E) a combination of gemcitabine (25 mg/kg), nab-paclitaxel (5 mg/kg) and mAb NMC-103 (2 mg/kg; 2 times a week for 3 weeks) or (10 mg/kg; 2 times a week for 2 weeks). All tumors were injected subcutaneously and all treatments were performed by intraperitoneal injection. Any mouse displaying prolonged adverse clinical signs, or with body weight loss exceeding 15% relative to body weight at day 0, was euthanized. Tumor measurements from post-treatment with HDM2-specific antibodies versus isotype control mouse antibodies versus standard of care treatment (gemcitabine and nab-paclitaxel) were made, and results are presented in FIGS. 16-19.
To further evaluate the NMC-103 dose-dependent anti-tumor effect, in a separate study, the MC-38 syngeneic tumor in mice (n=5) was re-established and treatment carried out similarly to the study of FIG. 17 with the following modification: increase of antibody concentration from 0.4 mg/kg to 10 mg/kg.

[3] = EDTA-treated permeabilized cells (Triton X-100)
[4] = 0.4 mg/kg i.p. 3 times a week for 3 weeks

B1: NMC-103: mouse monoclonal antibody, IgG1 isotype, binds NMC-P1 (SEQ ID NO:1); VH SEQ ID NO:36, VL SEQ ID NO:37 (antibody, V domains shown)
VH: EVQLQESGGGLVQPGGSLRLSCTTSGFTFTHYYMSWVRQPPGKALEWLGFIRNKAKGYTAEYSASVKGRFTISRDNSQSILYLQMNTLRPEDSATYYCARDIGDNWGQGTLVTVSS
VL: DIVMTQAAFSNPVTLGTSASISCRSSKNLLHSNGITYLYWYLQRPGQSPQLLISRVSNLASGVPNRFSGSESGTDFTLRISRVEAEDVGVYFCAQLLELPYTFGGGTKLEIK
modifications: mAb NMC-103 Heavy Chain Variable Region; mAb NMC-103 Light Chain Variable Region
% cells stained (flow cytometry) ([1]; EDTA-treated intact cells): 70.4%
% cells stained (flow cytometry) [1, 3]: 75.8%
% cells stained (flow cytometry) ([1]; trypsin-treated intact cells): 36.8%
reduction in tumor volume versus control [2, 4]: significant (p<0.005) reduction in tumor volume
tumor cells stained positive for Ki67 (immunohistochemistry) ([2]; NMC-103 study, 0.4 mg/kg, FIG. 17B): 5%
average tumor size ([2]; day 12, 10 mg/kg, 2 times per week for 2 weeks, n=5, FIG. 31): 210 mm^3
tumor volume ([2]; treated for 18 days, 0.4 mg/kg i.p. 3 times a week for 2.5 weeks, FIG. 17A): 1268 mm^3

B2: NMC-204: mouse monoclonal antibody, IgG3 isotype, binds NMC-P2 (SEQ ID NO:2); VH SEQ ID NO:38, VL SEQ ID NO:39 (antibody, V domains shown)
VH: EVQLQESGSVLVRPGASVKLSCKASGDTLSGSWMHWAMQRPGQGLEWIGEIHLNRGTTNYNEKFKGKATVTVDTSSSTAYVDLSSLTSEDSAVYYCARSPGFAYWGQGTLVTVSA
VL: GIVMTQAAPSVPVTPGESVSISCRSSKSLLHSNGNSYLYWFLQRPGQSPQLLIYRMSNLASGVPDRFSGSGSGTAFTLRITRVEAEDVGVYYCMQHLEYPFTFGSGTKLEIK
modifications: mAb NMC-204 Heavy Chain Variable Region; mAb NMC-204 Light Chain Variable Region
% cells stained (flow cytometry) ([1]; EDTA-treated intact cells): 51.2%
% cells stained (flow cytometry) [1, 3]: 52.85%
% cells stained (flow cytometry) ([1]; trypsin-treated intact cells): 27%
tumor volume ([2]; 0.4 mg/kg i.p. 3 times a week for 3 weeks, FIG. 18A): 1670 mm^3
reduction in tumor volume versus control [2, 4]: significant (p<0.005) reduction in tumor volume
tumor cells stained positively for Ki67 ([2]; NMC-204 study, 0.4 mg/kg, FIG. 18B): 30%
